B1: Protein PTHB1 (Homo sapiens), Q3SYG4 (parent)
chain: MSLFKARDWWSTILGDKEEFDQGCLCLANVDNSGNGQDKIIVGSFMGYLRIFSPHPAKTGDGAQAEDLLLEVDLRDPVLQVEVGKFVSGTEMLHLAVLHSRKLCVYSVSGTLGNVEHGNQCQMKLMYEHNLQRTACNMTYGSFGGVKGRDLICIQSMDGMLMVFEQESYAFGRFLPGFLLPGPLAYSSRTDSFLTVSSCQQVESYKYQVLAFATDADKRQETEQQKLGSGKRLVVDWTLNIGEQALDICIVSFNQSASSVFVLGERNFFCLKDNGQIRFMKKLDWSPSCFLPYCSVSEGTINTLIGNHNNMLHIYQDVTLKWATQLPHIPVAVRVGCLHDLKGVIVTLSDDGHLQCSYLGTDPSLFQAPNVQSRELNYDELDVEMKELQKIIKDVNKSQGVWPMTEREDDLNVSVVVSPNFDSVSQATDVEVGTDLVPSVTVKVTLQNRVILQKAKLSVYVQPPLELTCDQFTFEFMTPDLTRTVSFSVYLKRSYTPSELEGNAVVSYSRPTDRNPDGIPRVIQCKFRLPLKLICLPGQPSKTASHKITIDTNKSPVSLLSLFPGFASQSDDDQVNVMGFHFLGGARITVLASKTSQRYRIQSEQFEDLWLITNELILRLQEYFEKQGVKDFACSFSGSIPLQEYFELIDHHFELRINGEKLEELLSERAVQFRAIQRRLLARFKDKTPAPLQHLDTLLDGTYKQVIALADAVEENQGNLFQSFTRLKSATHLVILLIALWQKLSADQVAILEAAFLPLQEDTQELGWEETVDAAISHLLKTCLSKSSKEQALNLNSQLNIPKDTSQLKKHITLLCDRLSKGGRLCLSTDAAAPQTMVMPGGCTTIPESDLEERSVEQDSTELFTNHRHLTAETPRPEVSPLQGVSE
partner: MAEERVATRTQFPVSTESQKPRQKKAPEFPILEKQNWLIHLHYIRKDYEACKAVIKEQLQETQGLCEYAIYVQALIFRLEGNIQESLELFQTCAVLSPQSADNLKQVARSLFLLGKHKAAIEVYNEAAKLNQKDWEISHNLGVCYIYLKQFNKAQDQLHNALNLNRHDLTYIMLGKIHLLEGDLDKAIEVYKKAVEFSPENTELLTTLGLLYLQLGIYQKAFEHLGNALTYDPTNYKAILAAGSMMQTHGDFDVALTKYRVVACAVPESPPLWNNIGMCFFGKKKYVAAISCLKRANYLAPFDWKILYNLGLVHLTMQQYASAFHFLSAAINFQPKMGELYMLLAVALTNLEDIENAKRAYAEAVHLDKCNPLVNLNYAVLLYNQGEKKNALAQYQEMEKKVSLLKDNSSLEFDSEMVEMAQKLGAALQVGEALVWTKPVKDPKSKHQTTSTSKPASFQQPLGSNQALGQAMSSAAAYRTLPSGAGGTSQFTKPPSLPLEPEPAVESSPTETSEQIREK

Variants of: B1
Conditions: with bbs4_human BBS4, Q96RK4
For Q798K, the “effect of a mutation on the interaction” value was “disrupting interaction strength”. For Q798A, the “effect of a mutation on the interaction” value was “with no effect”. With Q798E the “effect of a mutation on the interaction” value was “with no effect”. L814E was tested, and the “effect of a mutation on the interaction” value was “with no effect”. With L814K the “effect of a mutation on the interaction” value was “with no effect”. With L814A the “effect of a mutation on the interaction” value was “with no effect”. With Q807A the “effect of a mutation on the interaction” value was “with no effect”. In the case of Q807E, the “effect of a mutation on the interaction” value is reported as “with no effect”. Q807K was tested, and the “effect of a mutation on the interaction” value was “with no effect”. In the case of I801E, the “effect of a mutation on the interaction” value is reported as “with no effect”. I801A was tested, and the “effect of a mutation on the interaction” value was “disrupting interaction strength”. With I801K the “effect of a mutation on the interaction” value was “with no effect”. With S820K the “effect of a mutation on the interaction” value was “with no effect”. With S820A the “effect of a mutation on the interaction” value was “with no effect”. With S820E the “effect of a mutation on the interaction” value was “with no effect”. For I846A, the “effect of a mutation on the interaction” value was “with no effect”. For I846E, the “effect of a mutation on the interaction” value was “with no effect”. With I846K the “effect of a mutation on the interaction” value was “with no effect”. In the case of T836E, the “effect of a mutation on the interaction” value is reported as “with no effect”. For T836K, the “effect of a mutation on the interaction” value was “with no effect”. For T836A, the “effect of a mutation on the interaction” value was “with no effect”. For T845A, the “effect of a mutation on the interaction” value was “with no effect”. With T845K the “effect of a mutation on the interaction” value was “with no effect”. T845E was tested, and the “effect of a mutation on the interaction” value was “with no effect”. With A833E the “effect of a mutation on the interaction” value was “with no effect”. In the case of A833K, the “effect of a mutation on the interaction” value is reported as “with no effect”. With A833S the “effect of a mutation on the interaction” value was “disrupting interaction strength”. In the case of R824K, the “effect of a mutation on the interaction” value is reported as “with no effect”. In the case of R824A, the “effect of a mutation on the interaction” value is reported as “with no effect”. In the case of R824E, the “effect of a mutation on the interaction” value is reported as “with no effect”. For C816K, the “effect of a mutation on the interaction” value was “with no effect”. For C816E, the “effect of a mutation on the interaction” value was “with no effect”. With C816A the “effect of a mutation on the interaction” value was “with no effect”. In the case of M837E, the “effect of a mutation on the interaction” value is reported as “with no effect”. For M837K, the “effect of a mutation on the interaction” value was “with no effect”. With M837A the “effect of a mutation on the interaction” value was “with no effect”. For M837I, the “effect of a mutation on the interaction” value was “disrupting interaction strength”. In the case of L793E, the “effect of a mutation on the interaction” value is reported as “with no effect”. For L793K, the “effect of a mutation on the interaction” value was “with no effect”. In the case of L793A, the “effect of a mutation on the interaction” value is reported as “with no effect”. In the case of K821A, the “effect of a mutation on the interaction” value is reported as “with no effect”. With K821E the “effect of a mutation on the interaction” value was “with no effect”. K803E was tested, and the “effect of a mutation on the interaction” value was “with no effect”. With K803A the “effect of a mutation on the interaction” value was “with no effect”. In the case of N794K, the “effect of a mutation on the interaction” value is reported as “with no effect”. In the case of N794E, the “effect of a mutation on the interaction” value is reported as “with no effect”. In the case of N794A, the “effect of a mutation on the interaction” value is reported as “with no effect”. In the case of I812A, the “effect of a mutation on the interaction” value is reported as “with no effect”. With I812E the “effect of a mutation on the interaction” value was “with no effect”. For I812K, the “effect of a mutation on the interaction” value was “with no effect”. In the case of L808E, the “effect of a mutation on the interaction” value is reported as “with no effect”. For L808A, the “effect of a mutation on the interaction” value was “with no effect”. L808K was tested, and the “effect of a mutation on the interaction” value was “with no effect”. With C826A the “effect of a mutation on the interaction” value was “with no effect”. In the case of C826E, the “effect of a mutation on the interaction” value is reported as “with no effect”. For C826K, the “effect of a mutation on the interaction” value was “with no effect”. C826R was tested, and the “effect of a mutation on the interaction” value was “disrupting interaction strength”. For S849E, the “effect of a mutation on the interaction” value was “with no effect”. S849K was tested, and the “effect of a mutation on the interaction” value was “with no effect”. With S849A the “effect of a mutation on the interaction” value was “with no effect”. In the case of K810E, the “effect of a mutation on the interaction” value is reported as “with no effect”. With K810A the “effect of a mutation on the interaction” value was “with no effect”. With L819E the “effect of a mutation on the interaction” value was “with no effect”. For L819A, the “effect of a mutation on the interaction” value was “with no effect”. L819K was tested, and the “effect of a mutation on the interaction” value was “with no effect”. For E790A, the “effect of a mutation on the interaction” value was “with no effect”. E790K was tested, and the “effect of a mutation on the interaction” value was “with no effect”. For R818E, the “effect of a mutation on the interaction” value was “with no effect”. For R818K, the “effect of a mutation on the interaction” value was “with no effect”. With R818A the “effect of a mutation on the interaction” value was “with no effect”. In the case of R818T, the “effect of a mutation on the interaction” value is reported as “disrupting interaction strength”. For N796A, the “effect of a mutation on the interaction” value was “with no effect”. With N796K the “effect of a mutation on the interaction” value was “with no effect”. With N796E the “effect of a mutation on the interaction” value was “with no effect”. In the case of P840K, the “effect of a mutation on the interaction” value is reported as “with no effect”. With P840E the “effect of a mutation on the interaction” value was “with no effect”. With P840A the “effect of a mutation on the interaction” value was “disrupting interaction strength”. P840S was tested, and the “effect of a mutation on the interaction” value was “disrupting interaction strength”. In the case of T813K, the “effect of a mutation on the interaction” value is reported as “with no effect”. T813E was tested, and the “effect of a mutation on the interaction” value was “with no effect”. T813A was tested, and the “effect of a mutation on the interaction” value was “with no effect”. In the case of G823K, the “effect of a mutation on the interaction” value is reported as “with no effect”. In the case of G823A, the “effect of a mutation on the interaction” value is reported as “with no effect”. In the case of G823E, the “effect of a mutation on the interaction” value is reported as “with no effect”. In the case of S828A, the “effect of a mutation on the interaction” value is reported as “with no effect”. With S828K the “effect of a mutation on the interaction” value was “with no effect”. S828E was tested, and the “effect of a mutation on the interaction” value was “with no effect”. D804K was tested, and the “effect of a mutation on the interaction” value was “with no effect”. In the case of D804A, the “effect of a mutation on the interaction” value is reported as “with no effect”.

Source: IntAct's records for PubMed 29039417
